We go through one molecule from doi:10.1101/2022.10.17.512631 (bioRxiv, 2022).

The assay concerns the target METTL3 (human, UniProt Q86U44 1-580). Briefly: SPR. In general terms: Surface plasmon resonance follows binding to a sensor surface in real time, without labels.

Sequence of METTL3 (Q86U44 whole entry): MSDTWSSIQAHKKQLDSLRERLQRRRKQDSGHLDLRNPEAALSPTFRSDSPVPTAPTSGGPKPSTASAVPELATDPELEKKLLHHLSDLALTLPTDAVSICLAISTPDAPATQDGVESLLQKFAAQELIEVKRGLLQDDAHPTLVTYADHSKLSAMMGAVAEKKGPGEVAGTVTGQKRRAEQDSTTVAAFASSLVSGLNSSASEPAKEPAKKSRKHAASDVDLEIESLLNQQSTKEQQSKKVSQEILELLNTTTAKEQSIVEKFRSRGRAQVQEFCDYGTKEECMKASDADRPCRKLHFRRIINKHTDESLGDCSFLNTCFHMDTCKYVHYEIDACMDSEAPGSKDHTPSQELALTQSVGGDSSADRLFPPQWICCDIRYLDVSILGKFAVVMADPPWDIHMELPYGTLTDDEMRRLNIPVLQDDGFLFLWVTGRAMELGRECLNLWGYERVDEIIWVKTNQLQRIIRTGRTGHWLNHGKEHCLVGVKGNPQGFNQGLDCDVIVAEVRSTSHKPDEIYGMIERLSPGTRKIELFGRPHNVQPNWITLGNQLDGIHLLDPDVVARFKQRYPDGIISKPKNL

B1: HEXIM1 (natural protein)
chain: MAEPFLSEYQHQPQTSNCTGAAAVQEELNPERPPGAEERVPEEDSRWQSRAFPQLGGRPGPEGEGSLESQPPPLQTQACPESSCLREGEKGQNGDDSSAGGDFPPPAEVEPTPEAELLAQPCHDSEASKLGAPAAGGEEEWGQQQRQLGKKKHRRRPSKKKRHWKPYYKLTWEEKKKFDEKQSLRASRIRAEMFAKGQPVAPYNTTQFLMDDHDQEEPDLKTGLYSKRAAAKSDDTSDDDFMEEGGEEDGGSDGMGGDGSEFLQRDFSETYERYHTESLQNMSKQELIKEYLELEKCLSRMEDENNRLRLESKRLGGDDARVRELELELDRLRAENLQLLTENELHRQQERAPLSKFGD
For orientation: Kd means the free concentration of one partner at which half of the binding sites on the other are occupied at equilibrium, for simple one-to-one binding. High values mean lower affinity, low ones higher affinity. On to B1, for which the Kd was ~270 nM.
